Laboratory results from US20240270846A1 (published 2024).

B1: CE115HA000/GLS3000 F55L one-arm antibody (antibody, human IgG1, kappa, L234A L235A, N297A, name in Kabat numbering)
heavy: QVQLVESGGGVVQPGRSLRLSCAASGFTFSNAWMHWVRQAPGKGLEWVAQIKAKSNNYATYYAESVKGRFTISRDDSKNSLYLQMNSLKTEDTAVYYCRYVHYGAYYGVDAWGQGTTVTVSSASTKGPSVFPLAPSSKSTSGGTAALGCLVKDYFPEPVTVSWNSGALTSGVHTFPAVLQSSGLYSLSSVVTVPSSSLGTQTYICNVNHKPSNTKVDKKVEPKSCDKTHTCPPCPAPEAAGGPSVFLFPPKPKDTLMISRTPEVTCVVVDVSHEDPEVKFNWYVDGVEVHNAKTKPREEQYASTYRVVSVLTVLHQDWLNGKEYKCKVSNKALPAPIEKTISKAKGQPREPQVYTLPPSRCELTKNQVSLSCAVKGFYPSDIAVEWESNGQPENNYKTTPPVLDSDGSFFLVSKLTVDKSRWQQGNVFSCSVMHEALHNHYTQKSLSLSPDYKDDDDK
chain: EPKSSDKTHTCPPCPAPELLGGPSVFLFPPKPKDTLMISRTPEVTCVVVDVSHEDPEVKFNWYVDGVEVHNAKTKPREEQYNSTYRVVSVLTVLHQDWLNGKEYKCKVSNKALPAPIEKTISKAKGQPREPQVCTLPPSRDELTKNQVSLWCLVKGFYPSDIAVEWESNGQPENNYKTTPPVLDSDGSFFLYSKLTVDKSRWQQGNVFSCSVMHEALHNRYTQKSLSLSP
light: DIVMTQSPLSLPVTPGEPASISCRSSQSLVHSNRNTYLHWYQQKPGQAPRLLIYKVSNRLSGVPDRFSGSGSGTDFTLKISRVEAEDVGVYYCGQGTQVPYTFGQGTKLEIKRTVAAPSVFIFPPSDEQLKSGTASVVCLLNNFYPREAKVQWKVDNALQSGNSQESVTEQDSKDSTYSLSSTLTLSKADYEKHKVYACEVTHQGLSSPVTKSFNRGEC
notes: one-arm IgG1
B2: CE115HA000/GLS3000 F55M one-arm antibody (antibody, human IgG1, kappa, L234A L235A, N297A, name in Kabat numbering)
heavy: QVQLVESGGGVVQPGRSLRLSCAASGFTFSNAWMHWVRQAPGKGLEWVAQIKAKSNNYATYYAESVKGRFTISRDDSKNSLYLQMNSLKTEDTAVYYCRYVHYGAYYGVDAWGQGTTVTVSSASTKGPSVFPLAPSSKSTSGGTAALGCLVKDYFPEPVTVSWNSGALTSGVHTFPAVLQSSGLYSLSSVVTVPSSSLGTQTYICNVNHKPSNTKVDKKVEPKSCDKTHTCPPCPAPEAAGGPSVFLFPPKPKDTLMISRTPEVTCVVVDVSHEDPEVKFNWYVDGVEVHNAKTKPREEQYASTYRVVSVLTVLHQDWLNGKEYKCKVSNKALPAPIEKTISKAKGQPREPQVYTLPPSRCELTKNQVSLSCAVKGFYPSDIAVEWESNGQPENNYKTTPPVLDSDGSFFLVSKLTVDKSRWQQGNVFSCSVMHEALHNHYTQKSLSLSPDYKDDDDK
chain: EPKSSDKTHTCPPCPAPELLGGPSVFLFPPKPKDTLMISRTPEVTCVVVDVSHEDPEVKFNWYVDGVEVHNAKTKPREEQYNSTYRVVSVLTVLHQDWLNGKEYKCKVSNKALPAPIEKTISKAKGQPREPQVCTLPPSRDELTKNQVSLWCLVKGFYPSDIAVEWESNGQPENNYKTTPPVLDSDGSFFLYSKLTVDKSRWQQGNVFSCSVMHEALHNRYTQKSLSLSP
light: DIVMTQSPLSLPVTPGEPASISCRSSQSLVHSNRNTYLHWYQQKPGQAPRLLIYKVSNRMSGVPDRFSGSGSGTDFTLKISRVEAEDVGVYYCGQGTQVPYTFGQGTKLEIKRTVAAPSVFIFPPSDEQLKSGTASVVCLLNNFYPREAKVQWKVDNALQSGNSQESVTEQDSKDSTYSLSSTLTLSKADYEKHKVYACEVTHQGLSSPVTKSFNRGEC
notes: one-arm IgG1
B3: CE115HA000/GLS3000 F55N one-arm antibody (antibody, human IgG1, kappa, L234A L235A, N297A, name in Kabat numbering)
heavy: QVQLVESGGGVVQPGRSLRLSCAASGFTFSNAWMHWVRQAPGKGLEWVAQIKAKSNNYATYYAESVKGRFTISRDDSKNSLYLQMNSLKTEDTAVYYCRYVHYGAYYGVDAWGQGTTVTVSSASTKGPSVFPLAPSSKSTSGGTAALGCLVKDYFPEPVTVSWNSGALTSGVHTFPAVLQSSGLYSLSSVVTVPSSSLGTQTYICNVNHKPSNTKVDKKVEPKSCDKTHTCPPCPAPEAAGGPSVFLFPPKPKDTLMISRTPEVTCVVVDVSHEDPEVKFNWYVDGVEVHNAKTKPREEQYASTYRVVSVLTVLHQDWLNGKEYKCKVSNKALPAPIEKTISKAKGQPREPQVYTLPPSRCELTKNQVSLSCAVKGFYPSDIAVEWESNGQPENNYKTTPPVLDSDGSFFLVSKLTVDKSRWQQGNVFSCSVMHEALHNHYTQKSLSLSPDYKDDDDK
chain: EPKSSDKTHTCPPCPAPELLGGPSVFLFPPKPKDTLMISRTPEVTCVVVDVSHEDPEVKFNWYVDGVEVHNAKTKPREEQYNSTYRVVSVLTVLHQDWLNGKEYKCKVSNKALPAPIEKTISKAKGQPREPQVCTLPPSRDELTKNQVSLWCLVKGFYPSDIAVEWESNGQPENNYKTTPPVLDSDGSFFLYSKLTVDKSRWQQGNVFSCSVMHEALHNRYTQKSLSLSP
light: DIVMTQSPLSLPVTPGEPASISCRSSQSLVHSNRNTYLHWYQQKPGQAPRLLIYKVSNRNSGVPDRFSGSGSGTDFTLKISRVEAEDVGVYYCGQGTQVPYTFGQGTKLEIKRTVAAPSVFIFPPSDEQLKSGTASVVCLLNNFYPREAKVQWKVDNALQSGNSQESVTEQDSKDSTYSLSSTLTLSKADYEKHKVYACEVTHQGLSSPVTKSFNRGEC
notes: one-arm IgG1
B4: CE115HA000/GLS3000 F55P one-arm antibody (antibody, human IgG1, kappa, L234A L235A, N297A, name in Kabat numbering)
heavy: QVQLVESGGGVVQPGRSLRLSCAASGFTFSNAWMHWVRQAPGKGLEWVAQIKAKSNNYATYYAESVKGRFTISRDDSKNSLYLQMNSLKTEDTAVYYCRYVHYGAYYGVDAWGQGTTVTVSSASTKGPSVFPLAPSSKSTSGGTAALGCLVKDYFPEPVTVSWNSGALTSGVHTFPAVLQSSGLYSLSSVVTVPSSSLGTQTYICNVNHKPSNTKVDKKVEPKSCDKTHTCPPCPAPEAAGGPSVFLFPPKPKDTLMISRTPEVTCVVVDVSHEDPEVKFNWYVDGVEVHNAKTKPREEQYASTYRVVSVLTVLHQDWLNGKEYKCKVSNKALPAPIEKTISKAKGQPREPQVYTLPPSRCELTKNQVSLSCAVKGFYPSDIAVEWESNGQPENNYKTTPPVLDSDGSFFLVSKLTVDKSRWQQGNVFSCSVMHEALHNHYTQKSLSLSPDYKDDDDK
chain: EPKSSDKTHTCPPCPAPELLGGPSVFLFPPKPKDTLMISRTPEVTCVVVDVSHEDPEVKFNWYVDGVEVHNAKTKPREEQYNSTYRVVSVLTVLHQDWLNGKEYKCKVSNKALPAPIEKTISKAKGQPREPQVCTLPPSRDELTKNQVSLWCLVKGFYPSDIAVEWESNGQPENNYKTTPPVLDSDGSFFLYSKLTVDKSRWQQGNVFSCSVMHEALHNRYTQKSLSLSP
light: DIVMTQSPLSLPVTPGEPASISCRSSQSLVHSNRNTYLHWYQQKPGQAPRLLIYKVSNRPSGVPDRFSGSGSGTDFTLKISRVEAEDVGVYYCGQGTQVPYTFGQGTKLEIKRTVAAPSVFIFPPSDEQLKSGTASVVCLLNNFYPREAKVQWKVDNALQSGNSQESVTEQDSKDSTYSLSSTLTLSKADYEKHKVYACEVTHQGLSSPVTKSFNRGEC
notes: one-arm IgG1
B5: CE115HA000/GLS3000 F55Q one-arm antibody (antibody, human IgG1, kappa, L234A L235A, N297A, name in Kabat numbering)
heavy: QVQLVESGGGVVQPGRSLRLSCAASGFTFSNAWMHWVRQAPGKGLEWVAQIKAKSNNYATYYAESVKGRFTISRDDSKNSLYLQMNSLKTEDTAVYYCRYVHYGAYYGVDAWGQGTTVTVSSASTKGPSVFPLAPSSKSTSGGTAALGCLVKDYFPEPVTVSWNSGALTSGVHTFPAVLQSSGLYSLSSVVTVPSSSLGTQTYICNVNHKPSNTKVDKKVEPKSCDKTHTCPPCPAPEAAGGPSVFLFPPKPKDTLMISRTPEVTCVVVDVSHEDPEVKFNWYVDGVEVHNAKTKPREEQYASTYRVVSVLTVLHQDWLNGKEYKCKVSNKALPAPIEKTISKAKGQPREPQVYTLPPSRCELTKNQVSLSCAVKGFYPSDIAVEWESNGQPENNYKTTPPVLDSDGSFFLVSKLTVDKSRWQQGNVFSCSVMHEALHNHYTQKSLSLSPDYKDDDDK
chain: EPKSSDKTHTCPPCPAPELLGGPSVFLFPPKPKDTLMISRTPEVTCVVVDVSHEDPEVKFNWYVDGVEVHNAKTKPREEQYNSTYRVVSVLTVLHQDWLNGKEYKCKVSNKALPAPIEKTISKAKGQPREPQVCTLPPSRDELTKNQVSLWCLVKGFYPSDIAVEWESNGQPENNYKTTPPVLDSDGSFFLYSKLTVDKSRWQQGNVFSCSVMHEALHNRYTQKSLSLSP
light: DIVMTQSPLSLPVTPGEPASISCRSSQSLVHSNRNTYLHWYQQKPGQAPRLLIYKVSNRQSGVPDRFSGSGSGTDFTLKISRVEAEDVGVYYCGQGTQVPYTFGQGTKLEIKRTVAAPSVFIFPPSDEQLKSGTASVVCLLNNFYPREAKVQWKVDNALQSGNSQESVTEQDSKDSTYSLSSTLTLSKADYEKHKVYACEVTHQGLSSPVTKSFNRGEC
notes: one-arm IgG1
B6: CE115HA000/GLS3000 F55R one-arm antibody (antibody, human IgG1, kappa, L234A L235A, N297A, name in Kabat numbering)
heavy: QVQLVESGGGVVQPGRSLRLSCAASGFTFSNAWMHWVRQAPGKGLEWVAQIKAKSNNYATYYAESVKGRFTISRDDSKNSLYLQMNSLKTEDTAVYYCRYVHYGAYYGVDAWGQGTTVTVSSASTKGPSVFPLAPSSKSTSGGTAALGCLVKDYFPEPVTVSWNSGALTSGVHTFPAVLQSSGLYSLSSVVTVPSSSLGTQTYICNVNHKPSNTKVDKKVEPKSCDKTHTCPPCPAPEAAGGPSVFLFPPKPKDTLMISRTPEVTCVVVDVSHEDPEVKFNWYVDGVEVHNAKTKPREEQYASTYRVVSVLTVLHQDWLNGKEYKCKVSNKALPAPIEKTISKAKGQPREPQVYTLPPSRCELTKNQVSLSCAVKGFYPSDIAVEWESNGQPENNYKTTPPVLDSDGSFFLVSKLTVDKSRWQQGNVFSCSVMHEALHNHYTQKSLSLSPDYKDDDDK
chain: EPKSSDKTHTCPPCPAPELLGGPSVFLFPPKPKDTLMISRTPEVTCVVVDVSHEDPEVKFNWYVDGVEVHNAKTKPREEQYNSTYRVVSVLTVLHQDWLNGKEYKCKVSNKALPAPIEKTISKAKGQPREPQVCTLPPSRDELTKNQVSLWCLVKGFYPSDIAVEWESNGQPENNYKTTPPVLDSDGSFFLYSKLTVDKSRWQQGNVFSCSVMHEALHNRYTQKSLSLSP
light: DIVMTQSPLSLPVTPGEPASISCRSSQSLVHSNRNTYLHWYQQKPGQAPRLLIYKVSNRRSGVPDRFSGSGSGTDFTLKISRVEAEDVGVYYCGQGTQVPYTFGQGTKLEIKRTVAAPSVFIFPPSDEQLKSGTASVVCLLNNFYPREAKVQWKVDNALQSGNSQESVTEQDSKDSTYSLSSTLTLSKADYEKHKVYACEVTHQGLSSPVTKSFNRGEC
notes: one-arm IgG1

The binders below were run against T1, CD3 epsilon homodimer protein (UniProt P07766 23-126) (assay: SPR (Biacore T200), CD3e homodimer on CM4 chip, antibody as analyte; KD ratio vs unaltered GLS3000;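 further: CD3 epsilon homodimer amine-coupled to the sensor surface, antibodies injected as analyte at 25 °C with HBS-EP+ running buffer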).
T1 construct: also called CD3 (CD3 epsilon)
T1 sequence (P07766 23-126): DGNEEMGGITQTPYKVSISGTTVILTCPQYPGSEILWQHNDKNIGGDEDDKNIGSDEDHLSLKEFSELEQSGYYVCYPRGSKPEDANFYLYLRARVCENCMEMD

In order of rising “KD ratio to GLS3000” value:
1. B3  0.91 ratio
2. B5  1.09 ratio
3. B4  1.15 ratio
4. B6  1.27 ratio
5. B2  1.29 ratio
6. B1  1.43 ratio
